Results as given in patent publication US20250179155A1 (VANDERBILT UNIVERSITY, published 2025).

Tests used:
[1] = biological target: T1, full-length TcdA (TcdA1-2710) (Clostridioides difficile strain VPI10463, UniProt P16154 1-2710); test: sandwich ELISA, capture A2B10, biotinylated detection A1A6
T1 construct: range 1-2710; also called rTcdA; purified, recombinant TcdA

[2] = biological target: T2, TcdA-GTD (TcdA1-542) (Clostridioides difficile strain VPI10463, UniProt P16154 1-542); test: ELISA-like screen of clone lysates on isolated domains
T2 construct: range 1-542; also called TcdA glucosyltransferase domain

[3] = biological target: T1, full-length TcdA (TcdA1-2710); test: cell-based or functional assay
[4] = biological target: T3, TcdB-CROPs (TcdB1827-2366) (Clostridioides difficile strain VPI10463, UniProt P18177 1827-2366); test: ELISA on isolated toxin domains (domain specificity)
T3 construct: range 1827-2366; also called TcdB CROPS domain; TcdBX-Y

[5] = biological target: full-length TcdB (TcdB1-2366), VPI10463 (Clostridioides difficile strain VPI10463, UniProt P18177 1-2366); test: cell-based or functional assay
[6] = biological target: T1, full-length TcdA (TcdA1-2710); test: sandwich ELISA on filtered culture supernatant (VPI10463), FIG. 3J
[7] = biological target: T4, TcdA1-1809 (Clostridioides difficile strain VPI10463, UniProt P16154 1-1809); test: ELISA on isolated toxin domains (domain specificity)
T4 construct: range 1-1809

[8] = biological target: T5, TcdA1-1832 (Clostridioides difficile strain VPI10463, UniProt P16154 1-1832); test: negative stain EM with single particle averaging
T5 construct: range 1-1832; also called TcdA1-1832 (no CROPs domain)

T2 sequence (P16154 1-542 limits assumed): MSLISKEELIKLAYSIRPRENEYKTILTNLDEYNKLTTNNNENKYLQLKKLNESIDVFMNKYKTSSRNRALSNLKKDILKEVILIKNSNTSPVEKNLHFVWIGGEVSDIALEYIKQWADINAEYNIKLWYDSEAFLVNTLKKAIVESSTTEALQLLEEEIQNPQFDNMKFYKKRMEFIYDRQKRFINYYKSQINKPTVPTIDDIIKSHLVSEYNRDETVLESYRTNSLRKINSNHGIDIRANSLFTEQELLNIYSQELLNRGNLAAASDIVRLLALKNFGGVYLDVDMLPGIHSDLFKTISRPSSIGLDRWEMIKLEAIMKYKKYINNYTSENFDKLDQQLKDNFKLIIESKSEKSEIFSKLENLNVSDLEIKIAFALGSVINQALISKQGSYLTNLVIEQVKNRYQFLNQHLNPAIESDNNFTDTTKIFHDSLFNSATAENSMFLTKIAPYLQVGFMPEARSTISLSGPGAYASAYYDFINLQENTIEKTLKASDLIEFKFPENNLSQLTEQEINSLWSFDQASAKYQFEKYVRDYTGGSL
T1 sequence (P16154 whole entry): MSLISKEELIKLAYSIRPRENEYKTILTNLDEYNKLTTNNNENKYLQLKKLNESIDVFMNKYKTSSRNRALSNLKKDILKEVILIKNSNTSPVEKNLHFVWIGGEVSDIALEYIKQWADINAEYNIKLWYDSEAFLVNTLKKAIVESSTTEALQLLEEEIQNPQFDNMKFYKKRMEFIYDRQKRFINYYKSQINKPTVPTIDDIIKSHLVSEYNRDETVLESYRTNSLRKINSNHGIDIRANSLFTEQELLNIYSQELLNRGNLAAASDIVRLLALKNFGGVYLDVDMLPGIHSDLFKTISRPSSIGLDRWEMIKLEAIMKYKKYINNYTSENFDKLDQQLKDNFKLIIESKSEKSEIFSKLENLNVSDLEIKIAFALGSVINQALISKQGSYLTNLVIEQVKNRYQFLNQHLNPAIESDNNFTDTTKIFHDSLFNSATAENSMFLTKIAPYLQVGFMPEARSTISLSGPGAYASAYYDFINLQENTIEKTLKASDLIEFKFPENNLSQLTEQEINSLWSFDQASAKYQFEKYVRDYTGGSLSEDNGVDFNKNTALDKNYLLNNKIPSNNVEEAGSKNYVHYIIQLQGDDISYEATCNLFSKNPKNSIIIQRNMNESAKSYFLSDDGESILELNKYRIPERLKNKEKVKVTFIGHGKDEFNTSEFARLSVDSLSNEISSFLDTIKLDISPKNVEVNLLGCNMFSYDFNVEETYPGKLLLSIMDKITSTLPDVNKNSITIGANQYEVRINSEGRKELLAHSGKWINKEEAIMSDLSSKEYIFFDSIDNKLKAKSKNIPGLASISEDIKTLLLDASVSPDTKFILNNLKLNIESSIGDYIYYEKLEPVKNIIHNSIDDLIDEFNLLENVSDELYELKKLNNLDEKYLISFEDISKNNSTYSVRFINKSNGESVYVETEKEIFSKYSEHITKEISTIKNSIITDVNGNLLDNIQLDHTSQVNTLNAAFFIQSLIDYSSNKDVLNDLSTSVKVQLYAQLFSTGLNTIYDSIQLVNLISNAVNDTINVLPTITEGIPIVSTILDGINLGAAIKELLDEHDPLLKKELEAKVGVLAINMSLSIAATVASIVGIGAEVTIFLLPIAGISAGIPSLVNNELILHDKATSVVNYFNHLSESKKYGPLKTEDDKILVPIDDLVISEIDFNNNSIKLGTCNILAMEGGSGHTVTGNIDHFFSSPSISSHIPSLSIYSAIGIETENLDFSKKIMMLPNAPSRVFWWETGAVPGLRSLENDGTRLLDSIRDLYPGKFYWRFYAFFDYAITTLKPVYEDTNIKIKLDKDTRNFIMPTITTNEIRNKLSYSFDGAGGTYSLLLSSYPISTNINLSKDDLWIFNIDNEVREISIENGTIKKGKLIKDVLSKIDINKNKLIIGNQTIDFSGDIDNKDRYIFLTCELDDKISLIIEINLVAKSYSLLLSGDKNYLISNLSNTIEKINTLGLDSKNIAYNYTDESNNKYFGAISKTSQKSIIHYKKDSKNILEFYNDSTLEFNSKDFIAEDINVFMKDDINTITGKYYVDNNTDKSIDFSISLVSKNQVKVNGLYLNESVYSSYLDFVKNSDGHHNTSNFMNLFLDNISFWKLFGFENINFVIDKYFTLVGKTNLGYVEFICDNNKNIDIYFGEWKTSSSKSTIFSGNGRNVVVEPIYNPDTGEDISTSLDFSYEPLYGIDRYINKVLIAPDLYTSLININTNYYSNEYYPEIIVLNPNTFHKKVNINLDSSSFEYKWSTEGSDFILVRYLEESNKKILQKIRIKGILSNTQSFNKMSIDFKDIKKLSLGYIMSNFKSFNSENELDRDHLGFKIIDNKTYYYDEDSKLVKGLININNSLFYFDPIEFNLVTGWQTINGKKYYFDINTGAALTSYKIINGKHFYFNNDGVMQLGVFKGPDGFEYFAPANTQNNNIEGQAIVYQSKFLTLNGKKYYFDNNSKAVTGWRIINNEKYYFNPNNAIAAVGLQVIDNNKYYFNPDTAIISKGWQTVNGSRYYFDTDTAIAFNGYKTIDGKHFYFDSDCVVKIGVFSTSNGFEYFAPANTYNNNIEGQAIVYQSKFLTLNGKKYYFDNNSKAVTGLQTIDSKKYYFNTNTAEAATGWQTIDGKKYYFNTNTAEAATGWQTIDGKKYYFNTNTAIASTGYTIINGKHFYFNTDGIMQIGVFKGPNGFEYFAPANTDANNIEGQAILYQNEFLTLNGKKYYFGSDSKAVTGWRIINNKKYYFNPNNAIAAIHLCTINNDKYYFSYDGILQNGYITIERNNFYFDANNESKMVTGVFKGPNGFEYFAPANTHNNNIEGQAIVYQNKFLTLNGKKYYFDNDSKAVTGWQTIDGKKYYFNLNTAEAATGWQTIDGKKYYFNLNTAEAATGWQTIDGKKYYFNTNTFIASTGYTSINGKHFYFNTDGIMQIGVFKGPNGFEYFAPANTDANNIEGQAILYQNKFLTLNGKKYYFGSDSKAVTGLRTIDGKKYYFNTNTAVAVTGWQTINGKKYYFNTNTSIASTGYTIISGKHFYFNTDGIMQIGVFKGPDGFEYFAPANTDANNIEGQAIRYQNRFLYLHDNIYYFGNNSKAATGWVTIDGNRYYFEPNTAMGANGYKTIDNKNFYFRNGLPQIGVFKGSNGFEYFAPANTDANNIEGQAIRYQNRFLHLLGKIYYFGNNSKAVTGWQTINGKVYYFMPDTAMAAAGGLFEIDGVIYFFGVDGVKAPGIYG
T3 sequence (P18177 1827-2366 limits assumed): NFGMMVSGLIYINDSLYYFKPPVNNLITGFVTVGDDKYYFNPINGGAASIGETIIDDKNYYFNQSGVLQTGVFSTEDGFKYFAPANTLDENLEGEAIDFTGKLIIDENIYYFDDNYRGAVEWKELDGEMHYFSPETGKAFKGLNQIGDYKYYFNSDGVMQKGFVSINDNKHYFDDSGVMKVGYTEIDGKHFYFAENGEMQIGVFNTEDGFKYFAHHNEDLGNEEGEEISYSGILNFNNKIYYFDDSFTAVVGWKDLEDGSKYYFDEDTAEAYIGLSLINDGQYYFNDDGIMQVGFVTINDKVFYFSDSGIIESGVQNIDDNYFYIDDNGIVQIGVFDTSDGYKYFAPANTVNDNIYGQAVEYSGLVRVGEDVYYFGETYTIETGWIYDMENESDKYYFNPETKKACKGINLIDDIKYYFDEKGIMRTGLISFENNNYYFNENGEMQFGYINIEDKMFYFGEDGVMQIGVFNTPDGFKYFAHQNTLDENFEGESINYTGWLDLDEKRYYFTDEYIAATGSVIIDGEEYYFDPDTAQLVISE

B1: A1A6 (VHH)
VHH: QVQLQESGGGSVQAGGSLRLSCAASGFIDDDYAIGWFRQAPGKEREGISCISSSNGKIHYADSVKGRFTISEDIAKKTVYLQMNFLKPEDTAVYYCAAETRGWSYCSGYGWSRYKYWGQGTQVTVSS
notes: also called Nb A1A6; A1A6-Avi
binding result [1]: binds

B2: A1F4 (VHH)
VHH: QVQLQESGGGLVQAGGSLRLSCTASGRTFTTYNWAWFCQAPGKEREFVAAITGLTRHTYYADSVKGRFTISRDNAKNTVYLQMNSLKPEDTAVYFCAVSSGGDLNERVNYEYWGQGTQVTVSS
binding result [2]: no binding
EC50, TcdA neutralization, T84 cells [3]: > 10000 nM

B3: B1A11 (VHH)
VHH: QVQLQESGGGVVQPGGSLRLTCTSSRSINIYVAMGWYRQAPGKQRERVATAHKDGGTRYSDSVKGRFTISRDDDKNTVYLQMNNLEPGDTAVYYCNAFGSSAWGQGTQVTVSS
binding result [4]: binds
EC50 (nM), TcdB neutralization, Vero cells [5]: 38.4 nM

B4: A2G6 (VHH)
VHH: QVQLQESGGGLVQAGGSLRLSCAASGRTFSRIAMGWFRQVPGKEREFVAGISGNGGTFYTDSVKGRFTISRDNTKNTVYLQMNSLRPEDTAVYYCAADPNYRATYFPYGMDYYGRGTQVTVSS
binding result [2]: no binding
EC50 (nM), TcdA neutralization, T84 cells [3]: 9.2 nM
EC50 (nM), TcdA neutralization, Vero cells [3]: < 1 nM

B5: A1C3 (VHH)
VHH: QVQLQESGGGLVQPGGSLRLSCAASGRIFSIKSMGWYRQAPGKQRELVADITSGGSTNYADSVKGRFTISRDSAWNTVYLQMNSLKPEDTAVYYCRRVVVTPYPDEYEYDYWGQGTQVTVSS
notes: also called Nb A1C3
binding result [6]: binds
binding result [2]: no binding
binding result [7]: binds
binding result [8]: binds

B6: B2F11 (VHH)
VHH: QVQLQESGGGLVQAGGSLTLSCTASGFTFSNYVMSWYRQAPGKEREWVASVSESGQSRTYADSVKGRFTISRDNTNFSVYLQMNNLNSEDTAVYYCNTGSRTYGARYWGQGTQVTVSS
binding result [4]: binds
EC50 (nM), TcdB neutralization, Vero cells [5]: 15.6 nM
